Measurements reported in patent publication US20170128524A1.

Target: c-Jun N-terminal Kinase (JNK)
Assay: cell-based or functional assay

Q: For L-JNKi1 (peptide), which phosphorylation of STX1a (S14) in synaptosomes, L-JNKi1 on its own is on record?
A: Its phosphorylation of STX1a (S14) in synaptosomes, L-JNKi1 on its own is -45%.
